Key:
[1] = target: BSA (Fraction V, Sigma), P02769
[2] = target: T1, hyphal wall protein 1 (Hwp1) on C. albicans germ tube surfaces, P46593
T1 chain: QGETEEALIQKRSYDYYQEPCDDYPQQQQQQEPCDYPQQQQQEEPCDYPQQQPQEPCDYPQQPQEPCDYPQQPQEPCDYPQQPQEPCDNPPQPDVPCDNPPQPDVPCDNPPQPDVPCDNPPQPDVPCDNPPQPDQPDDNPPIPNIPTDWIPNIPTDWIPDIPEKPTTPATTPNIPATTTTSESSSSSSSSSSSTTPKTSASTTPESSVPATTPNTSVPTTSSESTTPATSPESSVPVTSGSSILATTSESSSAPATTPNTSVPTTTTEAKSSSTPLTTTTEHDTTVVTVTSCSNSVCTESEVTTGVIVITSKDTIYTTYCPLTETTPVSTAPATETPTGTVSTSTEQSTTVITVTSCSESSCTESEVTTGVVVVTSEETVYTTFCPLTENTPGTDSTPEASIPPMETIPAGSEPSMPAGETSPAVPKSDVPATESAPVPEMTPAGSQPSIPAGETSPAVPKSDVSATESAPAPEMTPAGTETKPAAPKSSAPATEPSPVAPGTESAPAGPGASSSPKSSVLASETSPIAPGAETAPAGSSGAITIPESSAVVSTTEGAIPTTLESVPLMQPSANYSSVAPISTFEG

Chain of BSA (Fraction V, Sigma), P02769 (P02769 25-607): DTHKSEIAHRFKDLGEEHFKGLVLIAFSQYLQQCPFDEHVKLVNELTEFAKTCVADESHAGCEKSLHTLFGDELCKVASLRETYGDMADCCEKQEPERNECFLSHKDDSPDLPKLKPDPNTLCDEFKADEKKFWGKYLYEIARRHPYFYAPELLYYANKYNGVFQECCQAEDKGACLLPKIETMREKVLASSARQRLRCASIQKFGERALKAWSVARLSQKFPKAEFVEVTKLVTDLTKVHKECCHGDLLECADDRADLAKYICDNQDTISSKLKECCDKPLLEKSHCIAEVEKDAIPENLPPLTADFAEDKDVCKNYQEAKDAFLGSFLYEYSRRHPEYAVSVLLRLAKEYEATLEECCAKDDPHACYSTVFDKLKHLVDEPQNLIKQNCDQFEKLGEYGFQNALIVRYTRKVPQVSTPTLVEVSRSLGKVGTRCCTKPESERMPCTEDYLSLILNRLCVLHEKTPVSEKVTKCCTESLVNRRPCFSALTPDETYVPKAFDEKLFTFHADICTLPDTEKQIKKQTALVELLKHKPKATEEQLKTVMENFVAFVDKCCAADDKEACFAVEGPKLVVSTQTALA

B1: guinea pig liver transglutaminase (protein)
chain: AEDLILERCDLQLEVNGRDHRTADLCRERLVLRRGQPFWLTLHFEGRGYEAGVDTLTFNAVTGPDPSEEAGTMARFSLSSAVEGGTWSASAVDQQDSTVSLLLSTPADAPIGLYRLSLEASTGYQGSSFVLGHFILLYNPRCPADAVYMDSDQERQEYVLTQQGFIYQGSAKFINGIPWNFGQFEDGILDICLMLLDTNPKFLKNAGQDCSRRSRPVYVGRVVSAMVNCNDDQGVLQGRWDNNYSDGVSPMSWIGSVDILRRWKDYGCQRVKYGQCWVFAAVACTVLRCLGIPTRVVTNFNSAHDQNSNLLIEYFRNESGEIEGNKSEMIWNFHCWVESWMTRPDLEPGYEGWQALDPTPQEKSEGTYCCGPVPVRAIKEGHLNVKYDAPFVFAEVNADVVNWIRQKDGSLRKSINHLVVGLKISTKSVGRDEREDITHTYKYPEGSEEEREAFVRANHLNKLATKEEAQEETGVAMRIRVGQNMTMGSDFDIFAYITNGTAESHECQLLLCARIVSYNGVLGPVCSTNDLLNLTLDPFSENSIPLHILYEKYGDYLTESNLIKVRGLLIEPAANSYVLAERDIYLENPEIKIRVLGEPKQNRKLIAEVSLKNPLPVPLLGCIFTVEGAGLTKDQKSVEVPDPVEAGEQAKVRVDLLPTEVGLHKLVVNFECDKLKAVKGYRNVIIGPA
[14C]-putrescine cross-linking detected by SDS-PAGE and fluorography [1]: no evidence of cross-linking of [^14C]-putrescine to transglutaminase itself or to BSA was seen
transglutaminase-mediated incorporation of [14C]-putrescine (TCA-precipitable counts) [1]: BSA served as a negative control
transglutaminase-mediated incorporation of [14C]-putrescine (TCA-precipitable counts) (N,N' dimethylcasein): Incorporation of [^14C]-putrescine by rHwp1?C37 was equivalent to that of casein, a known substrate of transglutaminases
transglutaminase-mediated incorporation of a biotinylated lysine analogue into germ tubes (avidin-FITC fluorescence) [2]: Transglutaminase-mediated incorporation of a lysine analogue in the homozygous hwp1/hwp1 mutant strain CAH7-1A (FIG. 2E) was nearly absent as shown by the marked decrease in fluorescence compared to SC5314, CAI4, and CAH7
[14C]-putrescine cross-linking detected by SDS-PAGE and fluorography (rHwp1ΔC37, P46593): [^14C]-putrescine cross-linking to rHwp1?C37 detected by SDS-PAGE and fluorography required active transglutaminase
transglutaminase-mediated incorporation of [14C]-putrescine (TCA-precipitable counts) (rHwp1ΔC37, P46593): Incorporation of [^14C]-putrescine by rHwp1?C37 was equivalent to that of casein, a known substrate of transglutaminases

Source: US20020122804
